Laboratory results taken from the supplement of paper PMC10065799, “High-throughput profiling of sequence recognition by tyrosine kinases and SH2 domains using bacterial peptide display” (eLife, 2023).

Experiments:
c-Src SH2 = test: SH2 binding enrichment of the phosphorylated peptide, bacterial display (enrichment ratio); higher = better substrate or ligand; peptides without Tyr show the background
SHP2-C SH2 = test: as above
Grb2 SH2 = Grb2 SH2 (UniProt P62993); test: as above
c-Src = test: phosphorylation enrichment, bacterial display (enrichment ratio); higher = better substrate or ligand; peptides without Tyr show the background
Fer (mouse) = test: as above
MERTK = MERTK (UniProt Q12866); test: as above
Sequence of MERTK (Q12866 whole entry, looked up): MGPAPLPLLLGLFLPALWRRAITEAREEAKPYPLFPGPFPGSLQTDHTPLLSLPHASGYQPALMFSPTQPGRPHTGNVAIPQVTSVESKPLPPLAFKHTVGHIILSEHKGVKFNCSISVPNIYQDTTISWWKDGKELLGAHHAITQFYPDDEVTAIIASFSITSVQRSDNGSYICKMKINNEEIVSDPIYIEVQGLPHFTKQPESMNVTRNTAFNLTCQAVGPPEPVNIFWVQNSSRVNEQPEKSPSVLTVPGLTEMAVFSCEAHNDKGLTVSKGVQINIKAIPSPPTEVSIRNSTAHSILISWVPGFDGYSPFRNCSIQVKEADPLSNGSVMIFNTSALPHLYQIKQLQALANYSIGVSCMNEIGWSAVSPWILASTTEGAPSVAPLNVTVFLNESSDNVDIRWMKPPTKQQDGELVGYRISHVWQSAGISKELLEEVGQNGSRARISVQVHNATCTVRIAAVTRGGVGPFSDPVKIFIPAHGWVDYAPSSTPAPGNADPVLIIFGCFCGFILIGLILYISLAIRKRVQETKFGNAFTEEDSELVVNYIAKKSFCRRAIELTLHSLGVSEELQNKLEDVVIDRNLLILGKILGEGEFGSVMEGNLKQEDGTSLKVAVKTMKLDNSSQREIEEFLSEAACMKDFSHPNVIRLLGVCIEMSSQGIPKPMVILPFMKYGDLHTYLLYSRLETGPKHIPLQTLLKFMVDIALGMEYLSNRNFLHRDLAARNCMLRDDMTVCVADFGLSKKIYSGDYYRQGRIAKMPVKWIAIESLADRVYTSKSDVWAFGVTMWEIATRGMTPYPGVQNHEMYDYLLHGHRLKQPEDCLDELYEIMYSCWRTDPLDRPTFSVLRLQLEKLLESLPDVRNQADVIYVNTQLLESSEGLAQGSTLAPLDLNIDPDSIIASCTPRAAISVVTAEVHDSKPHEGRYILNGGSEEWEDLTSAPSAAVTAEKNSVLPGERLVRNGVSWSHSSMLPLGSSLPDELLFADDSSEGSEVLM

EPHB2 = EPHB2 (UniProt P29323); test: as above
c-Abl (mouse) = test: as above
FGFR3 = FGFR3 (UniProt P22607); test: as above
Sequence of FGFR3 (P22607 whole entry, looked up): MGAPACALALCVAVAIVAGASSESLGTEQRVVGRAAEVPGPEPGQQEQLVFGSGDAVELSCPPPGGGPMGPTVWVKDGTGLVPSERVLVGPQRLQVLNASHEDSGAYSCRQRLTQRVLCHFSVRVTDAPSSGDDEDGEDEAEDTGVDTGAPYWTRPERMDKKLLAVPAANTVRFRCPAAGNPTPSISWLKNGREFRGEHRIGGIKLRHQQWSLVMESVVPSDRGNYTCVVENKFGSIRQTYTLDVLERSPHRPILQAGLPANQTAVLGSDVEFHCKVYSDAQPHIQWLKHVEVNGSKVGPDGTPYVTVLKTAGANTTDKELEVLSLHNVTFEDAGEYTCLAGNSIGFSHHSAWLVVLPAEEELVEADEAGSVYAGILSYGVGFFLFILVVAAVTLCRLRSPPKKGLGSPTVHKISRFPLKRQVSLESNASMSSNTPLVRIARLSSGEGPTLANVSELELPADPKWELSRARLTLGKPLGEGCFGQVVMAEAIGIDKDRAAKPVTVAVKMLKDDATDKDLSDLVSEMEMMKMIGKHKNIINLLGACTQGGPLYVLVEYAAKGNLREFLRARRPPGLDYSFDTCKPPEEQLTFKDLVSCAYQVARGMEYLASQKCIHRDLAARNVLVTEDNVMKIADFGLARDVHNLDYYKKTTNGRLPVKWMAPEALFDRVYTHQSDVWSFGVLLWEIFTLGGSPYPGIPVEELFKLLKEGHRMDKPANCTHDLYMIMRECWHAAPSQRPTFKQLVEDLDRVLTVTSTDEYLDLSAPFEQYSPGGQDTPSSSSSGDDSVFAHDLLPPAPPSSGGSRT

Fes = Fes (UniProt P07332); test: as above
Sequence of Fes (P07332 whole entry, looked up): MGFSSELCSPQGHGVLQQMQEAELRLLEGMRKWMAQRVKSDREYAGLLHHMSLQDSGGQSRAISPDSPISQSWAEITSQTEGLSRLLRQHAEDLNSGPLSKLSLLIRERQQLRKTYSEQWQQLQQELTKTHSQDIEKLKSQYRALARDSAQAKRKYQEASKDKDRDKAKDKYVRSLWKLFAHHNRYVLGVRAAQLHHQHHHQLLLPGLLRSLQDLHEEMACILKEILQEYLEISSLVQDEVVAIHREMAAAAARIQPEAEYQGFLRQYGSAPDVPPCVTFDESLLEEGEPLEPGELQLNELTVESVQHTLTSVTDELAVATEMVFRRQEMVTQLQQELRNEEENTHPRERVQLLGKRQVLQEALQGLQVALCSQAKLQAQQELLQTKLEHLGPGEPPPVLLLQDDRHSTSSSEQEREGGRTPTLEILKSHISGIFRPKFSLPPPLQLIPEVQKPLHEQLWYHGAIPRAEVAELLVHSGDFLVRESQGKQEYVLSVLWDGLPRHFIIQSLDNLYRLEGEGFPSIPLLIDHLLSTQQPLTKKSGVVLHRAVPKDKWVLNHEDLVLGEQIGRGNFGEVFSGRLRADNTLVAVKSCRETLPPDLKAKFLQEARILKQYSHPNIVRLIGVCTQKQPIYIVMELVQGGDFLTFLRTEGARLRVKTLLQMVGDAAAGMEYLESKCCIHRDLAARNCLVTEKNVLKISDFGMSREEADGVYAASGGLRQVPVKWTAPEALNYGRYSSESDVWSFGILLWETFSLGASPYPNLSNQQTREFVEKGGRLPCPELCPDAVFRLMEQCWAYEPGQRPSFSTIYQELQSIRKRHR

Fyn = Fyn (UniProt P06241); test: as above
Jak2 = Jak2 (UniProt O60674); test: as above
Sequence of Jak2 (O60674 whole entry, looked up): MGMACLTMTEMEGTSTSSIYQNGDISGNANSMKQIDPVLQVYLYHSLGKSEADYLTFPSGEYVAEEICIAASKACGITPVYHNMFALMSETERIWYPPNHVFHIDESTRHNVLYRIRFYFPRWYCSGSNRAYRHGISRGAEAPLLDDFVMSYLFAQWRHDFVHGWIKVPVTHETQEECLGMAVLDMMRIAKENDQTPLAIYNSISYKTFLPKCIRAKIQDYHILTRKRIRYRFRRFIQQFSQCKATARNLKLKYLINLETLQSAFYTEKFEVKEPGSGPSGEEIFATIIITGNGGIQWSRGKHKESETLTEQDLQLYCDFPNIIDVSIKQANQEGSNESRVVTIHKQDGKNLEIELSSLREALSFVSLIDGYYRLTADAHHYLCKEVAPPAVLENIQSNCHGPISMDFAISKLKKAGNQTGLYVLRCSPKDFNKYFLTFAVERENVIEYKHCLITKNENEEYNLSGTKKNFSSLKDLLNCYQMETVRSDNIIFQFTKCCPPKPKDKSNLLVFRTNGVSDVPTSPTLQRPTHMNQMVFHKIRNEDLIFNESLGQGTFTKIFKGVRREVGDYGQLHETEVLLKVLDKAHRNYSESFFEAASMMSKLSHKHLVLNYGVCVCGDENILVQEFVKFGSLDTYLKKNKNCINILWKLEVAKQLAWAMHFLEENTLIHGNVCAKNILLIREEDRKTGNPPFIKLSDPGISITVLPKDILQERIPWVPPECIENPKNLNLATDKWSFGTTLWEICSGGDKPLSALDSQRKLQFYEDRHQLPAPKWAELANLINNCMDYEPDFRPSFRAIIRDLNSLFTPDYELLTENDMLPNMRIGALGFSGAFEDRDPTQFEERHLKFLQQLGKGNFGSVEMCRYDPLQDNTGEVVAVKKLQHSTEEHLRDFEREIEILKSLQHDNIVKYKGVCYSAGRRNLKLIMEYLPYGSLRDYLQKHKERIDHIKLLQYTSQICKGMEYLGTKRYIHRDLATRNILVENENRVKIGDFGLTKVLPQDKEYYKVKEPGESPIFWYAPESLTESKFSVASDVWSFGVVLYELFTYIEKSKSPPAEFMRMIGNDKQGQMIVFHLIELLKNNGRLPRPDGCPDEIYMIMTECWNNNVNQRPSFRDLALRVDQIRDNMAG

AncSZ = test: as above
Hck = Hck (UniProt P08631); test: as above
EPHB1 = EPHB1 (UniProt P54762); test: as above
FGFR1 = FGFR1 (UniProt P11362); test: as above
Sequence of FGFR1 (P11362 whole entry, looked up, the tested form may be a part): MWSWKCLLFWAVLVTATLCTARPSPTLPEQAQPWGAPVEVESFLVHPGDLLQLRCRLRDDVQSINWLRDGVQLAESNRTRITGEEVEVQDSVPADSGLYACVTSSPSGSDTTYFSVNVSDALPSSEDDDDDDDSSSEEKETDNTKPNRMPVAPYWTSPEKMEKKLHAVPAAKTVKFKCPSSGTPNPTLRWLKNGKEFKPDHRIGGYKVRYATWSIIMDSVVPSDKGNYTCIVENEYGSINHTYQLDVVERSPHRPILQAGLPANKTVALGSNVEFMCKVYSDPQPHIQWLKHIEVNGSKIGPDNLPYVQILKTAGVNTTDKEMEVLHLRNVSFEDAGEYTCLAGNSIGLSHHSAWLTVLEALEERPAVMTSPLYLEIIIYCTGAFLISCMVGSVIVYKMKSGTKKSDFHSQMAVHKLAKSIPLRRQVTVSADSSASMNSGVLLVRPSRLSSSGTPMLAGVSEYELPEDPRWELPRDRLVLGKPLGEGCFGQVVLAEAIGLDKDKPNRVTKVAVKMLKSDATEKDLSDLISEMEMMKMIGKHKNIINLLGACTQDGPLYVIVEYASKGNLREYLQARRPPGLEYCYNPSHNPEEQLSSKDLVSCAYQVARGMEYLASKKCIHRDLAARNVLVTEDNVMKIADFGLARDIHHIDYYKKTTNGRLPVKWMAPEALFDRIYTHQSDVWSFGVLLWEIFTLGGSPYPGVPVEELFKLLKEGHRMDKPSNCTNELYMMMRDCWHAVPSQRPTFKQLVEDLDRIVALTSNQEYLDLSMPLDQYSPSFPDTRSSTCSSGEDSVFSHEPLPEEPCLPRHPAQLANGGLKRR
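For SH2 binding enrichment of the phosphorylated peptide, bacterial display in this document: peptide library displayed on the E. coli surface as eCPX fusions, selected cells deep-sequenced, score is each peptide's frequency after selection divided by its frequency in the input.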
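For phosphorylation enrichment, bacterial display in this document: 11-residue human phosphosite peptides and single-mutation variants displayed on the E. coli surface, counted by deep sequencing, each peptide's frequency after selection divided by its frequency in the unselected input library; frequency after pTyr selection over input frequency; kinase dosed for 20-30% of maximal phosphorylation in three min.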

Sequence	SH2 binding enrichment (c-Src SH2)	SH2 binding enrichment (SHP2-C SH2)	SH2 binding enrichment (Grb2 SH2)	phosphorylation enrichment (c-Src)	phosphorylation enrichment (Fer (mouse))	phosphorylation enrichment (MERTK)	phosphorylation enrichment (EPHB2)	phosphorylation enrichment (c-Abl (mouse))	phosphorylation enrichment (FGFR3)	phosphorylation enrichment (Fes)	phosphorylation enrichment (Fyn)	phosphorylation enrichment (Jak2)	phosphorylation enrichment (AncSZ)	phosphorylation enrichment (Hck)	phosphorylation enrichment (EPHB1)	phosphorylation enrichment (FGFR1)
QMVGMYASFFM [AVPR2_Y124_S127F_YF]	0.602	0.782	0.642	8.13	5.31	5.38	2.27	4.72	1.5	2.03	9.8	2.03	1.88	5.82	3.06	0.676
LFSLGYHQSLW [GANAB_Y396_R400L]	0.61	0.59	0.98	0.42	0.474	0.535	0.702	0.666	0.786	0.986	0.475	0.7	0.827	0.475	0.627	0.51
ELANLYHHVCM [BICD2_Y538]	0.783	0.597	0.673	1.47	1.77	1.24	0.708	0.982	1.49	1.05	0.869	1.23	1.17	2.17	0.666	1.57
MGGSVYFSFPD [HIKESHI_Y55_YF]	0.662	0.908	0.892	5.05	0.55	3.89	0.991	1.12	2.85	1.32	4.01	1.94	1.55	2.64	1.09	3.19
RLPNGYGLAFR [DLK1_Y262_S260N_YF]	0.699	0.932	0.988	0.616	0.737	0.51	0.707	0.694	0.858	1.06	0.649	0.587	1.5	0.62	0.737	0.684
KYACSYTPVKA [FLNB_Y708_T703K]	1.28	2.91	1.05	0.432	0.438	0.414	0.417	0.557	0.697	0.758	0.387	0.598	0.689	0.483	0.473	0.576
LDYNEYFRDLN [HPRT1_Y198]	0.645	0.861	0.727	0.649	0.555	0.519	0.753	1.13	1.28	1.33	0.828	1.68	1.81	0.661	0.741	1.39
GTFVIYVRFSG [FLNB_Y1687_G1691S_YF]	0.442	0.812	1.15	0.539	0.443	0.472	0.468	0.979	0.569	1.4	0.426	1.14	1.17	0.454	0.572	0.406
GTVRDYPDFSP [ANXA3_Y15]	0.439	0.623	0.732	0.372	0.395	0.364	0.559	0.532	0.587	0.79	0.444	0.702	0.759	0.49	0.44	0.508
TTKGSYSLYVR [HCK_Y180_S183Y]	0.647	1.11	0.998	0.373	0.474	0.43	0.581	0.666	0.671	1.16	0.462	1.02	1.02	0.458	0.667	0.464
YEPDAYDDLDQ [ELP5_Y302]	1.07	0.764	0.767	0.482	0.663	0.403	0.523	0.769	0.842	1.19	0.496	0.919	1.26	0.548	0.542	0.56
DLDPNYVVSSR [CKM_Y125_L127V]	0.488	0.787	0.8	0.46	0.494	0.453	0.546	0.713	0.69	0.943	0.45	0.843	1.17	0.573	0.561	0.539
LFEDRYLLGTS [ASS1_Y87_YF]	0.529	0.537	0.918	0.258	1.12	0.863	1.98	0.41	2.45	1.8	1.29	0.885	2.21	1.12	2.81	1.26

The next lines start with results.

SH2 binding enrichment (c-Src SH2)	SH2 binding enrichment (SHP2-C SH2)	SH2 binding enrichment (Grb2 SH2)	Sequence	phosphorylation enrichment (c-Src)	phosphorylation enrichment (Fer (mouse))	phosphorylation enrichment (MERTK)	phosphorylation enrichment (EPHB2)	phosphorylation enrichment (c-Abl (mouse))	phosphorylation enrichment (FGFR3)	phosphorylation enrichment (Fes)	phosphorylation enrichment (Fyn)	phosphorylation enrichment (Jak2)	phosphorylation enrichment (AncSZ)	phosphorylation enrichment (Hck)	phosphorylation enrichment (EPHB1)	phosphorylation enrichment (FGFR1)
1.36	0.933	1.36	CTTIHHNFMCN [TP53_Y234_Y234H_YF]	0.362	0.483	0.377	0.51	0.478	0.641	0.844	0.453	0.606	0.713	0.436	0.482	0.525
0.395	0.731	1.48	LTRDIYKNDFF [ROS1_Y2110_A2106T_YF]	0.475	0.937	0.723	0.495	0.673	0.963	1.07	0.836	0.79	0.974	0.717	0.683	1.05
0.947	0.472	0.765	YGGRDYSLDEF [MYOF_Y1705]	0.594	0.618	0.454	0.609	0.809	0.697	1.1	0.657	0.945	0.981	0.603	0.594	0.582
0.464	0.437	0.761	EPVSDYINADI [PTPN11_Y304_N308D]	0.514	0.614	0.492	0.689	9	0.908	1.33	0.581	1.12	1.5	0.637	0.695	0.77
0.391	0.805	0.814	TVEDHYFEGGI [TKT_Y563_YF]	0.472	0.559	0.444	0.625	0.798	1.03	1.05	0.519	0.776	1.1	0.497	0.726	0.762
0.869	2.41	1.1	KLVRLYAVVTR [LYN_Y306]	0.611	0.474	0.497	0.633	0.971	0.794	1.14	0.402	1.15	1.35	0.49	0.799	0.483
0.494	1.11	0.877	ARTNEYKIIRT [INA_Y87]	0.569	0.512	0.436	0.425	0.843	0.452	0.469	0.504	0.571	0.525	0.502	0.468	0.455
1.25	0.828	0.923	PSQRRNVYYYS [PTEN_Y174_Y174N]	0.9	0.568	4.42	0.657	0.47	1.41	0.838	0.837	0.916	0.567	0.74	0.397	1.36
0.52	0.55	0.849	KVFRVYQGQQP [MUTYH_Y494]	0.375	0.37	0.344	0.415	0.413	0.494	0.608	0.374	0.484	0.569	0.388	0.308	0.439
0.863	1.06	1.3	LLREWYLPDPF [SIX3_Y225_Q227P_YF]	0.747	0.871	0.583	0.711	1.13	1.36	2.2	1.11	1.4	2.26	0.791	1.22	1.25
0.244	0.744	0.563	QTEAQYRFIYM [PTPN11_Y511]	1.23	1.09	0.667	0.782	1.5	1.54	1.29	0.634	1.56	1.77	0.542	0.835	1.65
0.366	0.561	0.939	WRRLIYRCQVG [NR2E3_Y81_R76W]	0.494	0.489	0.484	0.486	0.65	0.515	0.784	0.452	0.837	0.906	0.424	0.389	0.487
0.489	0.678	0.825	FRVAGYKTQGG [TIA1_Y383_E384K_YF]	0.342	0.273	0.436	0.468	0.686	0.468	0.624	0.668	0.558	0.533	0.401	0.379	0.417
0.604	0.821	0.865	RLEKEYFDQHF [NPC1_Y394]	0.571	0.5	0.631	0.707	0.795	0.959	1.29	0.341	1.44	1.13	0.665	0.717	1.39
0.829	1.66	0.86	SSPQPYLVPFL [TAF4_Y652]	0.49	0.466	0.514	0.867	1.09	0.746	0.78	0.497	2.85	0.857	0.481	0.415	0.522
1.21	4.04	1.05	DFLSSYSAVKQ [OAT_Y85_N89K]	0.444	0.746	0.273	0.502	0.46	0.445	1.03	0.466	0.639	1.5	0.429	0.516	0.491
0.965	1.66	1.83	FIILIYAMKKK [SLCO1B1_Y645_YF]	0.32	0.354	1.35	0.385	0.51	0.377	0.583	0.321	0.447	0.323	0.465	0.179	0.509
0.675	0.836	0.692	PLDGEYFTRQI [TP53_Y327_L330R]	0.841	0.291	0.54	0.435	1.2	0.651	1.01	0.547	0.637	1.09	0.686	0.441	0.387
0.49	0.766	0.594	ARLEYCENEKK [IRS1_Y47_Y47C]	0.486	0.464	0.449	0.475	0.486	0.702	0.815	0.567	0.687	0.795	0.421	0.552	0.786
1.06	0.94	0.774	LREKVYVSLEA [RXRA_Y397_A398V]	1.36	0.44	0.568	0.501	0.542	0.737	0.794	1.36	0.723	0.64	0.61	0.456	0.837
